From paper PMC12527946, “Structural analyses define the molecular basis of clusterin chaperone function” (Nature Structural & Molecular Biology, 2025)

B1: wild-type human clusterin (WT Clu) (natural protein)
chain 1: DQTVSDNELQEMSNQGSKYVNKEIQNAVNGVKQIKTLIEKTNEERKTLLSNLEEAKKKKEDALNETRESETKLKELPGVCNETMMALWEECKPCLKQTCMKFYARVCRSGSGLVGRQLEEFLNQSSPFYFWMNGDRIDSLLENDRQQTHMLDVMQDHFSRASSIIDELFQDRFFTREPQDTYHYLPFSLPHRRPHFFFPKSRIVR
chain 2: SLMPFSPYEPLNFHAMFQPFLEMIHEAQQAMDIHFHSPAFQHPPTEFIREGDDDRTVCREIRHNSTGCLRMKDQCDKCREILSVDCSTNNPSQAKLRRELDESLQVAERLTRKYNELLKSYQWKMLNTSSLLEQLNEQFNWVSRLANLTQGEDQYYLRVTTVASHTSDSDVPSGVTEVVVKLFDSDPITVTVPVEVSRKNPKFMETVAEKALQEYRKKHREE
modifications: N-glycans (six in the whole protein); five disulfide bonds to the α-chain | N-glycans (six in the whole protein); five disulfide bonds to the β-chain
notes: clusterin β-chain, human, residues 23–227 of the precursor; clusterin α-chain, human, residues 228–449 of the precursor; Almost completely processed by furin into β- and α-chain, which stay disulfide-linked; In the flotation assay it stood in DMPC nanodiscs (Clu–DMPC); also called apolipoprotein J; ApoJ

Key:
[1] = target: VLDLR(28–797)Δ(751–779)-C-tag (VLDLR ectodomain) (human, UniProt P98155-2 28-797, Δ(751–779)); test: ELISA; plate coated with 10 µg/ml VLDLR-ed; Clu or RAP in TBS-C pH 7.4, 2 mM CaCl2, 2% BSA, 0.05% Tween-20, 1 h at room temperature; background binding to BSA subtracted; one-site specific binding fit; conditions: both partners purified
[2] = target: the molecule itself; test: SEC; 10 μM Clu in 20 mM MES-NaOH pH 6.5, HEPES-NaOH pH 7.5 or Tris-HCl pH 8.5, 100 mM NaCl, 1 mM EDTA, overnight or longer on ice; Superdex-200 Increase 3.2/300 at room temperature; monomers and dimers
[3] = target: B1; test: SEC; D-Rho diluted into PBS to 0.5 μM with 1.5 μM WT Clu, 30 min at 25 °C; soluble fraction on Superose-6, fractions by SDS-PAGE and immunoblotting against Rho and Clu; conditions: both partners purified
[4] = target: VLDLR(28–797)Δ(751–779)-C-tag (VLDLR ectodomain) (human, UniProt P98155-2 28-797, Δ(751–779), Secreted from HEK293E, glycosylated, Ca2+-bound LDLR repeats, disulfides; C-terminal C-tag left out. Deletion 751-779 taken as printed, in the numbering of the long isoform); test: ELISA; plate coated with 10 µg/ml VLDLR-ed; Clu or RAP in TBS-C pH 7.4, 2 mM CaCl2, 2% BSA, 0.05% Tween-20, 1 h at room temperature; background binding to BSA subtracted; one-site specific binding fit; conditions: both partners purified

B1
Kd [1]: ~80 nM | stoichiometry N [2]: 2

B2: denatured bovine rhodanese (D-Rho) (enzyme, UniProt P00586 1-297, looked up)
chain: MVHQVLYRALVSTKWLAESVRAGKVGPGLRVLDASWYSPGTREARKEYLERHVPGASFFDIEECRDKASPYEVMLPSEAGFADYVGSLGISNDTHVVVYDGDDLGSFYAPRVWWMFRVFGHRTVSVLNGGFRNWLKEGHPVTSEPSRPEPAIFKATLNRSLLKTYEQVLENLESKRFQLVDSRAQGRYLGTQPEPDAVGLDSGHIRGSVNMPFMNFLTEDGFEKSPEELRAMFEAKKVDLTKPLIATCRKGVTACHIALAAYLCGKPDVAIYDGSWFEWFHRAPPETWVSQGKGGKA
notes: rhodanese (33 kDa), bovine; Denatured in 6 M guanidinium–HCl and 5 mM DTT and diluted 120-fold into buffer; non-native, forms oligomers and aggregates
binding result [3]: binds

B3: receptor-associated protein (RAP) (natural protein, UniProt P30533 36-357, looked up)
chain: SREKNQPKPSPKRESGEEFRMEKLNQLWEKAQRLHLPPVRLAELHADLKIQERDELAWKKLKLDGLDEDGEKEARLIRNLNVILAKYGLDGKKDARQVTSNSLSGTQEDGLDDPRLEKLWHKAKTSGKFSGEELDKLWREFLHHKEKVHEYNVLLETLSRTEEIHENVISPSDLSDIKGSVLHSRHTELKEKLRSINQGLDRLRRVSHQGYSTEAEFEEPRVIDLWDLAQSANLTDKELEAFREELKHFEAKIEKHNHYQKQLEIAHEKLRHAESVGDGERVSRSREKHALLEGRTKELGYTVKKHLQDLSGRISRARHNEL
notes: LRPAP1 from plasmid pQTEV-LRPAP1; the signal peptide (amino acids 1–35) was removed; Purification is told in the Supplementary Information; also called LRPAP1; low density lipoprotein receptor-related protein-associated protein 1
Kd [4]: ~1.2 nM
